Experiment [1] deals with T1, Ebola virus GP, Sudan strain, on VLPs (Ebola virus, Sudan strain, UniProt Q7T9D9 33-676).
T1 construct: also called Sudan NC_006432
T1 sequence: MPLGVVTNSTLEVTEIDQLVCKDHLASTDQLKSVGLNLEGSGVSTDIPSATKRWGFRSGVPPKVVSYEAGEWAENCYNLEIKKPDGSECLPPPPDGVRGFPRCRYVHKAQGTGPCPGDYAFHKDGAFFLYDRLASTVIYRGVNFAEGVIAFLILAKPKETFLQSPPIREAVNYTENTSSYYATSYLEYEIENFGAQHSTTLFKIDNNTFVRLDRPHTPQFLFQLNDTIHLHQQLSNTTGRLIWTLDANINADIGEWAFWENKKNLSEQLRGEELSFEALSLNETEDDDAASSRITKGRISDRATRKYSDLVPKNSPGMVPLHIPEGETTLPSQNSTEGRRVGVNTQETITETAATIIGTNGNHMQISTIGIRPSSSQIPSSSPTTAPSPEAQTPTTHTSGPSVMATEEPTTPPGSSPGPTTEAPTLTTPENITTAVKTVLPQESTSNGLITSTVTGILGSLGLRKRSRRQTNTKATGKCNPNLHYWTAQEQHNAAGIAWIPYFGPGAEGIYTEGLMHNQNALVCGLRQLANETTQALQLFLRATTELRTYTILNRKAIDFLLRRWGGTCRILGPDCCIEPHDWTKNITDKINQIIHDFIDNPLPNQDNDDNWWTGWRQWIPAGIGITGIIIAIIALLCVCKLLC
The experiment is described as follows: MSD, VLPs coated.

Experiment [2] concerns the target T2, Ebola virus GP, Cote d'Ivoire strain, on VLPs (Ebola virus, Cote d'Ivoire strain, UniProt Q66810 33-676).
T2 construct: also called Cote d'Ivoire FJ217162; Ivory Coast
T2 sequence: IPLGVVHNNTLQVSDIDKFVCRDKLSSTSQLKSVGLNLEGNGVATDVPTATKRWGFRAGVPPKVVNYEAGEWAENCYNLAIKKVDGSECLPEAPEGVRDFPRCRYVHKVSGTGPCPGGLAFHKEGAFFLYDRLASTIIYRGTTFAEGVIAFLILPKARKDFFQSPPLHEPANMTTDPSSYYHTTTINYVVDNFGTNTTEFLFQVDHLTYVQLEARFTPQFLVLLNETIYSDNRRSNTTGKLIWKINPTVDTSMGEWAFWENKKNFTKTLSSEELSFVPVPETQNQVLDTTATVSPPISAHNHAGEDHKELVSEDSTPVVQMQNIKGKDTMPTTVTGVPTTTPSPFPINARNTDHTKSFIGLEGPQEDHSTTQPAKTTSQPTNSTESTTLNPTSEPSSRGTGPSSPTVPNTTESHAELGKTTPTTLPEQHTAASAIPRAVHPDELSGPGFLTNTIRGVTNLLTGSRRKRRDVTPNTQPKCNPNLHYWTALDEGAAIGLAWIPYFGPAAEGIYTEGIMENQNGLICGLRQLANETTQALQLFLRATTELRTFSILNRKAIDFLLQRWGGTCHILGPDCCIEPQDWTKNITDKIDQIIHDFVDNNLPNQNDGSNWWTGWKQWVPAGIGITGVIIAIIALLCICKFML
Description: MSD, VLPs coated.

Experiment [3] concerns the target T3, Ebola virus GP with a C-terminal polyhistidine tag (Sino Biologicals, Catalog #40442-V08B1) (Ebola virus, UniProt P87666 33-650).
T3 construct: also called EbolaGP.his; Ebola virus GP.his
Description: SPR 25C, mAb captured.

The target of experiment [4] is T3, Ebola virus GP with a C-terminal …. Description: SPR 37C, mAb captured.
Experiment [5] has as its target T4, hCNTFR.mmh (ciliary neurotrophic factor receptor.mmh) (human (printed as hCNTFR), UniProt P26992 23-342).
T4 construct: also called negative control protein; not shown: mmh (myc-myc-hexahistidine) tag
T4 sequence: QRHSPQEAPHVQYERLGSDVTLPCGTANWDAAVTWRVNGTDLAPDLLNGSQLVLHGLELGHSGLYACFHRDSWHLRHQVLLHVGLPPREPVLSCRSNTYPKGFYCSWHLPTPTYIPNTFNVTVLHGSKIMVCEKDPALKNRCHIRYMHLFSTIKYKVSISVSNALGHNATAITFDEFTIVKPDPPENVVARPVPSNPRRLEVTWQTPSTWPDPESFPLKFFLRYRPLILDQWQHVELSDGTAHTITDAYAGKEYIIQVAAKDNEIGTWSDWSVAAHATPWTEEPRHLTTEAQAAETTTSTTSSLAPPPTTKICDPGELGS
Description: BLI, mAb captured, 25C.

The target in experiment [6] is T3, Ebola virus GP with a C-terminal …. The experiment is described as follows: SPR 37C, mAb captured, pH chase.

B1: H1H17139P (antibody, V domains shown)
VH: EVQLVESGGGLVQPGGSLRLSCAASGFTFSSYDMHWVRQATGKGLEWVSAIGTAGDTYYPGSVKGRFTISRENAKNSLYLQMNSLRAGDTAVYYCARTWFGELYFDYWGQGTLVTVSS
VL: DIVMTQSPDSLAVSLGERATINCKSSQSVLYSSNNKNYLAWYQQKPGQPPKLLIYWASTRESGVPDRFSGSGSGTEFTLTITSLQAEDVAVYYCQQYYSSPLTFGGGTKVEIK
Consider B1, for which, in experiment [1], the binding result is “no binding”. For the same molecule, the binding result in experiment [2] was “no binding”. In experiment [3], this molecule registered a Kd of 7.13 nM, a koff of 0.000163 s⁻¹, a kon of 22900 M⁻¹ s⁻¹ and a t½ of 70.8 min. Further, in experiment [4], binding was characterised by a dissociation constant (Kd) of 20.6 nM, the koff was 0.000512 s⁻¹, the kon was found to be 24800 M⁻¹ s⁻¹ and the t½ was determined as 22.5 min. For the same molecule, the binding result in experiment [5] is reported as “no binding (tested: below 0.10 nm at 300 nM)”. Moreover, in experiment [6], the “t½ ratio pH 7.4/pH 5.0” value was found to be 0.2 and the “t½ ratio pH 7.4/pH 6.0” value stood at 0.2.

B2: H1H17219P (antibody, V domains shown)
VH: QVQLQQSGPGLVKPSQTLSLTCAISGDSVSSNIPAWNWIRQSPSRGLEWLGRTYYRSKWYNDYAVSVKSRITINPDTSKNHFSLQLNSVTPEDTAVYYCARGRVYDRSSRYFYAMDVWGQGTTVTVSS
VL: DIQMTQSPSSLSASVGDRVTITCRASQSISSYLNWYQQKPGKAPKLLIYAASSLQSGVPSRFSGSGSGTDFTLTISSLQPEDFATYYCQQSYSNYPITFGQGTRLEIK
Regarding B2, the binding result in experiment [1] was “no binding”. Further, in experiment [2], the binding result was “no binding”. In experiment [3], this molecule yielded a Kd of 0.934 nM, an off-rate constant (koff) of 2.9e-05 s⁻¹, a kon of 31100 M⁻¹ s⁻¹ and a t½ of 398 min. In addition, in experiment [4], the Kd worked out at 0.227 nM, the off-rate (koff) was at most 1e-05 s⁻¹, the kon was 44100 M⁻¹ s⁻¹ and the t½ was at least 1160 min. Moreover, the binding result in experiment [5] is reported as “no binding (tested: below 0.10 nm at 300 nM)”. Moreover, in experiment [6], the “t½ ratio pH 7.4/pH 5.0” value was 1 and the “t½ ratio pH 7.4/pH 6.0” value worked out at 1.

B3: H1H17358N2 (antibody, V domains shown)
VH: EVQLVESGGGLVQPGGSLRLSCAASGFTFSTYEMNWVRQAPGKGLEWVSYSSSSGRTIYYADSVKGRFTISRDNAKNSLFLQMNSLRAEDTAVYYCARPSSIETLLRNQYHYGVDVWGQGTTVTVSS
VL: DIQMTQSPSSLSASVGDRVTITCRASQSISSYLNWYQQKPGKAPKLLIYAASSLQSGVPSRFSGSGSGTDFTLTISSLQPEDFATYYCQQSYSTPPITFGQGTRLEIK
Consider B3, for which the results for the binding result in experiment [1], in experiment [2] and in experiment [5] were “no binding”, “no binding” and “no binding (tested: below 0.10 nm at 300 nM)”, respectively.

B4: H1H17214P (antibody, V domains shown)
VH: EVQLVESGGGLVQPGGSLRLSCAASKFTFDTFAMSWVRQAPGKGLEWVSFISSSGGRTDYVDSVKGRFTISRDNSKNTLYLQMNSLRAEDTAVYYCAKERTIFGVLILGPDNYGMDVWGQGTTVTVSS
VL: DIQMTQSPSSLSAFVGDRVTITCRASQSISTYLNWYQQKPGKAPKLLIYAASSLQSGVSSRFSGSGSGTDFTLTISSLQPEDFATYYCQQSYSAPPITFGQGTRLEIK
As for B4, the binding result in experiment [1] is reported as “no binding”. Moreover, the binding result in experiment [2] is given as “no binding”. In experiment [3], this molecule displayed a Kd of at most 0.266 nM, a koff of at most 1e-05 s⁻¹, a kon of 37600 M⁻¹ s⁻¹ and a t½ of at least 1160 min. In experiment [4], this molecule registered a Kd of 4.2 nM, a koff of 0.000154 s⁻¹, a kon of 36700 M⁻¹ s⁻¹ and a t½ of 74.9 min. Moreover, the binding result in experiment [5] was “no binding (tested: below 0.10 nm at 300 nM)”. Also, in experiment [6], the “t½ ratio pH 7.4/pH 5.0” value is 1 and the “t½ ratio pH 7.4/pH 6.0” value is 1.

B5: H1H17223P (antibody, V domains shown)
VH: EVQLVESGGGLVQPGGSLRLSCAASGFTFRTYDMHWVRQATGKGLEWVSAIGTAGDTYYPGSVKGRFTISRENAKNSLYLQMNSLRAGDTAVYYCARTIFGVVLTFDYWGQGTLVTVSS
VL: DIQMTQSPSSLSASVGDRVTITCRASQSISSSLNWYQQKPGKAPKLLIYAASSLHSGVPSRFSGSGSGTDFTLTISSLQPEDFATYYCQQTYSIPPTTFGQGTKVEIK
On to B5, for which the binding result in experiment [1] is “no binding”. For the same molecule, the binding result in experiment [2] is reported as “no binding”. In experiment [3], this molecule yielded a Kd of 2.03 nM, a koff of 6.08e-05 s⁻¹, a kon of 30000 M⁻¹ s⁻¹ and a t½ of 190 min. In experiment [4], the Kd amounted to 6.89 nM, the off-rate constant (koff) was 0.000242 s⁻¹, the kon was 35100 M⁻¹ s⁻¹ and the t½ was 47.7 min. In addition, in experiment [5], the binding result is on record as “no binding (tested: below 0.10 nm at 300 nM)”. Further, in experiment [6], the “t½ ratio pH 7.4/pH 5.0” value was determined as 0.4 and the “t½ ratio pH 7.4/pH 6.0” value was 0.4.

B6: H1H17203P (antibody, V domains shown)
VH: QVQLVESGGGVVQPGRSLRLSCAASGFTFNNYGMHWVRQAPGMGLEWVAVIWHDGSDKYYADSVKGRFTISRDNSKNTLYLQMNSLRAEDTAVYYCARNWNLFDYWGQGTLVTVSS
VL: DIQMTQSPSSLSASVGDRITITCRASQSISTYLHWYQQKPGKAPKLLIYAASTLQSGVPSRFSGSGSGTDFTLTISSLQPEDFATYYCQQSFSTPPINFGQGTKLEIK
Turning to B6, the binding result in experiment [1] is reported as “no binding”. Also, the binding result in experiment [2] is “no binding”. In experiment [3], this molecule displayed a Kd of 6.04 nM, a koff of 0.000168 s⁻¹, a kon of 27800 M⁻¹ s⁻¹ and a t½ of 68.7 min. In experiment [4], this molecule had a dissociation constant Kd of 30.9 nM, a koff of 0.00119 s⁻¹, a kon of 38500 M⁻¹ s⁻¹ and a t½ of 9.7 min. Also, the binding result in experiment [5] is given as “no binding (tested: below 0.10 nm at 300 nM)”. Moreover, in experiment [6], the “t½ ratio pH 7.4/pH 5.0” value was determined as 0.1 and the “t½ ratio pH 7.4/pH 6.0” value stood at 0.2.

B7: H1M17357N (antibody, V domains shown)
VH: QVQLVQSGAEVKKPGASVKVSCKASGYTFTSYYMHWVRQAPGQGLEWMGIINPSGGSTSYAQKFQGRVTMTRDTSTSTVYMELSSLRSEDTAVYYCAREIGEAGEVFNYWGQGTLVTVSS
VL: DIQMTQSPSSLSASVGDRVTITCRASQSISRYLNWYQHKPGKAPKVLIYAASILQSGVPSRFSGSGSGTDFTLTISSLQPEDFATYYCQQSYSTPPITFGQGTRLEIK
notes: also called HCAF09D11-13
For the molecule B7, in experiment [1], the binding result is reported as “no binding”. In addition, the binding result in experiment [2] is “no binding”. Besides, in experiment [4], the Kd turned out to be 78.1 nM, the koff worked out at 0.00184 s⁻¹, the kon stood at 23500 M⁻¹ s⁻¹ and the t½ turned out to be 6.3 min. Besides, in experiment [5], the binding result is reported as “no binding (tested: below 0.10 nm at 300 nM)”. Moreover, in experiment [6], the “t½ ratio pH 7.4/pH 5.0” value was 0.5 and the “t½ ratio pH 7.4/pH 6.0” value worked out at 0.8.

B8: H1H17228P (antibody, V domains shown)
VH: EVQLVESGGGLVQPGGSLRLSCAASGFTFSNYAMIWVRQAPGKGLEWVSGISGSGGSIYYADSVKGRFTISRDNSKNTLYLQMNSLRAEDTAVYYCAKEGIISMVRGLINYYHGMDVWGQGTTVTVSS
VL: not shown
For the molecule B8, in experiment [1], the binding result is recorded as “no binding”. In addition, the binding result in experiment [2] was “no binding”. In experiment [3], this molecule registered a dissociation constant (Kd) of 37.6 nM, a koff of 0.00169 s⁻¹, a kon of 44900 M⁻¹ s⁻¹ and a t½ of 6.9 min. In experiment [4], the dissociation constant (Kd) is 52.3 nM, the koff is 0.00383 s⁻¹, the kon turned out to be 73200 M⁻¹ s⁻¹ and the t½ was found to be 3 min. The binding result in experiment [5] was “no binding (tested: below 0.10 nm at 300 nM)”. Also, in experiment [6], the “t½ ratio pH 7.4/pH 5.0” value is 0.5 and the “t½ ratio pH 7.4/pH 6.0” value was 0.6.

The record behind these values is patent US20160215040A1 (Regeneron, published 2016).
